US20210395344A1 (TWIST BIOSCIENCE, published 2021)
Positions count from the first letter of the chain named.

B1: SARS-CoV-2 variant 1-22 (antibody, V domains shown)
VH: EVQLLESGGGLVQPGGSLRLSCAASGFTFSSYAMNWVRQAPGKGLEWVSIISGSGGSTYYADSVKGRFTISRDNSKNTLYLQMNSLRAEDTAVYYCAREGYRDYLWYFDLWGQGTLVTVSS
VL: QSALTQPASVSGSPGQSITISCTGTSTDVGSYNLVSWYQQHPGKAPKLMIYEGSQRPSGVSNRFSGSKSGNTASLTISGLQAEDEADYYCCSYAGSSTVFGGGTKLTVL
B2: SARS-CoV-2 variant 1-21 (antibody, V domains shown)
VH: B1 VH with A33T, N35S
VL: QSALTQPASVSGSPGQSITISCTGTSSDVGSNNLVSWYQQHPGKAPKLMIYEGNKRPSGVSNRFSGSKSGNTASLTISGLQAEDEADYYCCSYAGSVVFGGGTKLTVL
B3: SARS-CoV-2 variant 1-24 (antibody, V domains shown)
VH: B1 VH
VL: B1 VL with T27S, S31Y, S54N, Q55K, S96G, T98V
B4: SARS-CoV-2 variant 1-23 (antibody, V domains shown)
VH: B1 VH with M34I, N35S
VL: B1 VL with T27N, S54N, Q55K, S97Y
B5: SARS-CoV-2 variant 1-38 (antibody, V domains shown)
VH: EVQLLESGGGLVQPGGSLRLSCAASGITFSSYAMSWVRQAPGKGLEWVSGISGSGGSTYYADSVKGRFTISRDNSKNTLYLQMNSLRAEDTAVYYCAKHGSGTIFGVVIAKYYFDYWGQGTLVTVSS
VL: QSALTQPASVSGSPGQSITISCTGTSSDIGSYNLVSWYQQHPGKAPKLMIYEGTKRPSGVSNRFSGSKSGNTASLTISGLQAEDEADYYCCSYAGSRTYVFGGGTKLTVL
B6: SARS-CoV-2 variant 1-42 (antibody, V domains shown)
VH: B5 VH with I27V, G50A, S52T
VL: B5 VL with I29V, S31R, T54G, G95S, R97S, Y99L
B7: SARS-CoV-2 variant 1-10 (antibody, V domains shown)
VH: EVQLLESGGGLVQPGGSLRLSCAASGFTFSSYDMSWVRQAPGKGLEWVSVISGSGGSTYYADSVKGRFTISRDNSKNTLYLQMNSLRAEDTAVYYCAKGPLVGWYFDLWGQGTLVTVSS
VL: QSALTQPASVSGSPGQSITISCTGTSSNVGSYNLVSWYQQHPGKAPKLMIYEGTKRPSGVSNRFSGSKSGNTASLTISGLQAEDEADYYCCSYAGSSSFVVFGGGTKLTVL
B8: SARS-CoV-2 variant 1-26 (antibody, V domains shown)
VH: EVQLLESGGGLVQPGGSLRLSCAASGFTFSSYAISWVRQAPGKGLEWVSAISGSGYSTYYADSVKGRFTISRDNSKNTLYLQMNSLRAEDTAVYYCARGAPDSSGYYFQGEVYFDYWGQGTLVTVSS
VL: B7 VL with N28D, S31G, Y93F, A94V, G95R, S98A, F99H
B9: SARS-CoV-2 variant 1-8 (antibody, V domains shown)
VH: B7 VH
VL: B5 VL with S27N, I29V, T54S, T98Y, Y99V
B10: SARS-CoV-2 variant 1-47 (antibody, V domains shown)
VH: EVQLLESGGGLVQPGGSLRLSCAASGFTFSSQAMSWVRQAPGKGLEWVSAISGSGGGTYYADSVKGRFTISRDNSKNTLYLQMNSLRAEDTAVYYCAKDRRFGEFDPWGQGTLVTVSS
VL: B7 VL with N28G, T54I
B11: SARS-CoV-2 variant 1-2 (antibody, V domains shown)
VH: B10 VH
VL: B7 VL with N28G, T54I
B12: SARS-CoV-2 variant 1-27 (antibody, V domains shown)
VH: EVQLLESGGGLVQPGGSLRLSCAASGFTFSSYAMTWVRQAPGKGLEWVSAISGSGGGTYYADSVKGRFTISRDNSKNTLYLQMNSLRAEDTAVYYCASSSSWQFDYWGQGTLVTVSS
VL: B7 VL with N28Y, S31H, T54S, K55R, S97Y, S98T, F99H, V100Y
B13: SARS-CoV-2 variant 1-30 (antibody, V domains shown)
VH: EVQLLESGGGLVQPGGSLRLSCAASGFTFSSYAMTWVRQAPGKGLEWVSAISGSGGSTFYADSVKGRFTISRDNSKNTLYLQMNSLRAEDTAVYYCTRPPYGDYGDYWGQGTLVTVSS
VL: B7 VL with S27R, N28D, S97R, S98T, F99P
B14: SARS-CoV-2 variant 1-7 (antibody, V domains shown)
VH: B7 VH
VL: B7 VL with N28D, V29F, T54N, S98T
B15: SARS-CoV-2 variant 1-3 (antibody, V domains shown)
VH: B10 VH
VL: B7 VL with T25I, N28D
B16: SARS-CoV-2 variant 1-5 (antibody, V domains shown)
VH: B10 VH
VL: B7 VL with N28G, G53A, T54S, S97Y, S98T, V100A
B17: SARS-CoV-2 variant 1-9 (antibody, V domains shown)
VH: B7 VH
VL: B7 VL with N28D, S31D, T54S, K55N
B18: SARS-CoV-2 variant 1-41 (antibody, V domains shown)
VH: B7 VH
VL: B5 VL
B19: SARS-CoV-2 variant 1-28 (antibody, V domains shown)
VH: B12 VH with A33G, T35S
VL: B7 VL with N28G, T54S, K55Q, S98T, F99H, V100Y
B20: SARS-CoV-2 variant 1-4 (antibody, V domains shown)
VH: B10 VH
VL: B7 VL with N28D, S31T, T54S, K55Q
B21: SARS-CoV-2 variant 1-31 (antibody, V domains shown)
VH: B13 VH with T35N
VL: B7 VL with N28D, S31K, T54S, K55Q, S97R, S98T, F99P
B22: SARS-CoV-2 variant 1-33 (antibody, V domains shown)
VH: B13 VH with T35I
VL: B7 VL with N28D, V35L, G53A, T54S, S97R, S98T, F99P
B23: SARS-CoV-2 variant 1-32 (antibody, V domains shown)
VH: B13 VH with T35Y
VL: QSALTQPASVSGSPGQSITISCTGTSSDVGGYNLVSWYQQHPGKAPKLMIYEGNKRPSGVSNRFSGSKSGNTASLTISGLQAEDEADYYCCSYAGSSTFPVVFGGGTKLTVL

Molecular target: T1, Acro COVID S1 (S1N-C82E8) (SARS-CoV-2, UniProt P0DTC2 16-685)
T1 construct: domain: S1 (subunit 1)
Assay: phage ELISA

Row | Binder | specificity ELISA, fold over background [fold over background]
1 | B1 | 32.7
2 | B2 | 19.5
3 | B3 | 12.9
4 | B4 | 5.1
5 | B5 | 1.1
6 | B6 | 22.7
7 | B7 | 17.4
8 | B8 | 1.4
9 | B9 | 12
10 | B10 | 8.1
11 | B11 | 1.8
12 | B12 | 1.5
13 | B13 | 16.8
14 | B14 | 6.8
15 | B15 | 1.6
16 | B16 | 1.5
17 | B17 | 10.7
18 | B18 | 4.5
19 | B19 | 1
20 | B20 | 1
21 | B21 | 30.4
22 | B22 | 7.1
23 | B23 | 11.5
